Measured values published in PMC8501957.

Target: MvaT F36D/M44D (P. aeruginosa) (UniProt Q9HW86)
Assay: ITC; gp4 injected into MvaT F36D/M44D in the cell; 20 C; 20 mM Bis-Tris pH 6, 50 mM KCl, 16 mM MgCl2; one set of sites model

gp4 K42E/K45E (natural protein)
Kd: 1.36 µM | stoichiometry N: 0.52

gp4 of Pseudomonas phage LUZ24 (natural protein)
Kd: 0.17 µM | stoichiometry N: 0.56
